{"source": "paper PMC12519566", "about": "“A TOM1 variant impairs interaction with TOLLIP, autophagosome-lysosome fusion and regulation of innate immunity” (Disease Models & Mechanisms, 2025)", "key": {"TOLLIP": {"target": "T1, TOLLIP (Homo sapiens, UniProt Q9H0E2)", "T1 construct": "human TOLLIP cDNA in pGEX6P1, expressed in E. coli Rosetta; GST-TOLLIP in the lipid overlay, TOLLIP in liposome co-sedimentation", "assay": "lipid-protein overlay; liposome co-sedimentation", "type": "binding", "details": "without TOM1; overlay: PtdIns3P on PVDF, 60 nM GST-TOLLIP, pH 8.0, 4 C; sedimentation: 2.5 uM TOLLIP, DOPC/DOPE liposomes with 3% PtdIns3P"}, "GST [1]": {"target": "GST", "assay": "cross-linking; glutaraldehyde dilution series (0.01-1%), 5 min at 37°C; SDS-PAGE"}, "GST [2]": {"target": "GST", "assay": "cross-linking; BS3 (0.25-5 mM), 30 min at room temperature; TOLLIP and TOM1 preincubated for 30 min before BS3; SDS-PAGE"}, "[3]": {"target": "T2, TOM1 G307D, MYC-BirA fusion (BioID bait) (UniProt O60784 1-492, G307D)", "T2 construct": "also called TOM1 G307D variant; source: inducible Flp-In T-REx 293 cell line, induced with doxycycline and biotin, in cells", "assay": "proximity labelling; BioID with mass spectrometry; Flp-In T-REx 293 cells induced with 2 µg/ml doxycycline and 50 µM biotin for 24 h; Strep-Tactin sepharose; three biological replicates", "details": "partners not purified"}}}
{"molecule": "CCCCCCCCCCCCCCCC(=O)OC[C@H](COP(=O)(O)O[C@@H]1[C@H](O)[C@H](OP(=O)(O)O)[C@@H](O)[C@H](O)[C@H]1O)OC(=O)CCCCCCCCCCCCCCC", "note": "[dipalmitoyl PtdIns3P]", "values": [{"measurement": "lipid-protein overlay; liposome co-sedimentation", "setting": "TOLLIP", "result": "As expected, TOM1 WT significantly reduced TOLLIP binding to PtdIns3P (Fig. 2B)."}]}
{"molecule": "GST (natural protein)", "values": [{"measurement": "stoichiometry N", "setting": "GST [1]", "result": 2}, {"measurement": "stoichiometry N", "setting": "GST [2]", "result": 2}]}
{"molecule": "myosin VI (natural protein, human (endogenous in Flp-In T-REx 293), UniProt Q9UM54 1-1294, looked up, myosin VI, endogenous protein found by proximity labeling mass spectrometry; source: endogenous, Flp-In T-REx 293 cells) MEDGKPVWAPHPTDGFQMGNIVDIGPDSLTIEPLNQKGKTFLALINQVFPAEEDSKKDVEDNCSLMYLNEATLLHNIKVRYSKDRIYTYVANILIAVNPYFDIPKIYSSEAIKSYQGKSLGTRPPHVFAIADKAFRDMKVLKMSQSIIVSGESGAGKTENTKFVLRYLTESYGTGQDIDDRIVEANPLLEAFGNAKTVRNNNSSRFGKFVEIHFNEKSSVVGGFVSHYLLEKSRICVQGKEERNYHIFYRLCAGASEDIREKLHLSSPDNFRYLNRGCTRYFANKETDKQILQNRKSPEYLKAGSMKDPLLDDHGDFIRMCTAMKKIGLDDEEKLDLFRVVAGVLHLGNIDFEEAGSTSGGCNLKNKSAQSLEYCAELLGLDQDDLRVSLTTRVMLTTAGGTKGTVIKVPLKVEQANNARDALAKTVYSHLFDHVVNRVNQCFPFETSSYFIGVLDIAGFEYFEHNSFEQFCINYCNEKLQQFFNERILKEEQELYQKEGLGVNEVHYVDNQDCIDLIEAKLVGILDILDEENRLPQPSDQHFTSAVHQKHKDHFRLTIPRKSKLAVHRNIRDDEGFIIRHFAGAVCYETTQFVEKNNDALHMSLESLICESRDKFIRELFESSTNNNKDTKQKAGKLSFISVGNKFKTQLNLLLDKLRSTGASFIRCIKPNLKMTSHHFEGAQILSQLQCSGMVSVLDLMQGGYPSRASFHELYNMYKKYMPDKLARLDPRLFCKALFKALGLNENDYKFGLTKVFFRPGKFAEFDQIMKSDPDHLAELVKRVNHWLTCSRWKKVQWCSLSVIKLKNKIKYRAEACIKMQKTIRMWLCKRRHKPRIDGLVKVGTLKKRLDKFNEVVSVLKDGKPEMNKQIKNLEISIDTLMAKIKSTMMTQEQIQKEYDALVKSSEELLSALQKKKQQEEEAERLRRIQEEMEKERKRREEDEKRRRKEEEERRMKLEMEAKRKQEEEERKKREDDEKRIQAEVEAQLARQKEEESQQQAVLEQERRDRELALRIAQSEAELISDEAQADLALRRSLDSYPVSKNDGTRPKMTPEQMAKEMSEFLSRGPAVLATKAAAGTKKYDLSKWKYAELRDTINTSCDIELLAACREEFHRRLKVYHAWKSKNKKRNTETEQRAPKSVTDYDFAPFLNNSPQQNPAAQIPARQREIEMNRQQRFFRIPFIRPADQYKDPQSKKKGWWYAHFDGPWIARQMELHPDKPPILLVAGKDDMEMCELNLEETGLTRKRGAEILPRQFEEIWERCGGIQYLQNAIESRQARPTYATAMLQSLLK", "values": [{"measurement": "interaction relative to that of TOM1 WT with myosin VI", "setting": "[3]", "result": 69, "unit": "%"}]}
